The results in this text go back to patent publication US20240294581.

In the series the test system is T1, Leupeptin A (N-Acetyl-L-leucyl-L-leucyl-L-argininal).
T1 sequence: LLR

Turning to “Plu4509 (hypothetical protein / candidate protease from P. luminescens TTO1), purified as a His6x-tagged variant”, the “production of metabolites 10 and 11 (in vitro enzyme assay, end point analysis; 1 h, 35 C; LC-MS)” value is “addition of enzyme indeed significantly enhanced production of 10 and 11”; the “production of metabolites 10 and 11 in E. coli expressing plu4509, fed leupeptin A, versus vector control” value is “E. coli control cultures were capable of generating both metabolites 10 and 11 with plu4509 providing an enhancement in production over controls”.
